According to publication PMC8715031, “Fusion of Chitin-Binding Domain From Chitinolyticbacter meiyuanensis SYBC-H1 to the Leaf-Branch Compost Cutinase for Enhanced PET Hydrolysis” (Frontiers in Bioengineering and Biotechnology, 2021):

B1: LCC^ICCG (unidentified prokaryotic organism; D238C/F243I/S283C/Y127G) (protein)
chain: QSNPYQRGPNPTRSALTADGPFSVATYTVSRLSVSGFGGGVIYYPTGTSLTFGGIAMSPGYTADASSLAWLGRRLASHGFVVLVINTNSRFDGPDSRASQLSAALNYLRTSSPSAVRARLDANRLAVAGHSMGGGGTLRIAEQNPSLKAAVPLTPWHTDKTFNTSVPVLIVGAEADTVAPVSQHAIPFYQNLPSTTPKVYVELCNASHIAPNSNNAAISVYTISWMKLWVDNDTRYRQFLCNVNDPALCDFRTNNRHCQ
notes: ICCG variant of LCC, synthetic gene in pET-29a, C-terminal His6-tag, E. coli BL21(DE3), Ni-NTA purified
B2: LCC^ICCG-ChBD (unidentified prokaryotic organism; D238C/F243I/S283C/Y127G) (protein)
chain: QSNPYQRGPNPTRSALTADGPFSVATYTVSRLSVSGFGGGVIYYPTGTSLTFGGIAMSPGYTADASSLAWLGRRLASHGFVVLVINTNSRFDGPDSRASQLSAALNYLRTSSPSAVRARLDANRLAVAGHSMGGGGTLRIAEQNPSLKAAVPLTPWHTDKTFNTSVPVLIVGAEADTVAPVSQHAIPFYQNLPSTTPKVYVELCNASHIAPNSNNAAISVYTISWMKLWVDNDTRYRQFLCNVNDPALCDFRTNNRHCQ
notes: C-terminal His6-tag; pET-29a, E. coli BL21(DE3), Ni-NTA purified; Chitinolyticbacter meiyuanensis SYBC-H1

Substrate: CCCC(=O)Oc1ccc([N+](=O)[O-])cc1
Assay: purified protein
Type: biochemical, unidentified prokaryotic organism
Conditions: 50 mM phosphate buffer pH 8.0, isopropanol as substrate solvent, temperature not stated

| Protein | Km | kcat | kcat/Km |
| --- | --- | --- | --- |
| B1 | 126.3 µM | 67.5 s⁻¹ | 534000 M⁻¹ s⁻¹ |
| B2 | 141.8 µM | 68.4 s⁻¹ | 404000 M⁻¹ s⁻¹ |
